According to patent publication US6005086, “Farnesoid activated receptor polypeptides, and nucleic acid encoding the same” (The Salk Institute for Biological Studies):

What was measured:
FAR-RXRalpha heterodimer [1] = biological target: T1, FAR-RXRalpha heterodimer (Rattus norvegicus (FAR) / Homo sapiens …, UniProt Q62735;P19793 Q62735:1-469,P19793:1-462); assay: cell_activity; 50 uM JH III; 76-fold with 100 nM LG69, 212-fold with both; parental MTV reporter lacking EcREs not activated by JH III; conditions: tags: CMV expression vectors in CV-1 cells
T1 sequence (Q62735 whole entry, chain 1 of 2): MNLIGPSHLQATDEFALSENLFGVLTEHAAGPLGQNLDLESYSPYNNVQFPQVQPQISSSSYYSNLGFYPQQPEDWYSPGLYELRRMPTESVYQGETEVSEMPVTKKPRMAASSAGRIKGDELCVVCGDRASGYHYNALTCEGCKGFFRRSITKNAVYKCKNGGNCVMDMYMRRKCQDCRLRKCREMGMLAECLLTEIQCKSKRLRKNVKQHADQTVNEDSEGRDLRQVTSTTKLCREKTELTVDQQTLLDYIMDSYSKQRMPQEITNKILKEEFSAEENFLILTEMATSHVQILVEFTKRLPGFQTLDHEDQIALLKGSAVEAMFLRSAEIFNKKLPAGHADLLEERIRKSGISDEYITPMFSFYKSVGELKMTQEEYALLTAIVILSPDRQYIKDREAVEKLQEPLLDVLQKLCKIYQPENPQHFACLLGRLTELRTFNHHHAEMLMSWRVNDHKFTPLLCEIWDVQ
T1 sequence (P19793 whole entry, chain 2 of 2): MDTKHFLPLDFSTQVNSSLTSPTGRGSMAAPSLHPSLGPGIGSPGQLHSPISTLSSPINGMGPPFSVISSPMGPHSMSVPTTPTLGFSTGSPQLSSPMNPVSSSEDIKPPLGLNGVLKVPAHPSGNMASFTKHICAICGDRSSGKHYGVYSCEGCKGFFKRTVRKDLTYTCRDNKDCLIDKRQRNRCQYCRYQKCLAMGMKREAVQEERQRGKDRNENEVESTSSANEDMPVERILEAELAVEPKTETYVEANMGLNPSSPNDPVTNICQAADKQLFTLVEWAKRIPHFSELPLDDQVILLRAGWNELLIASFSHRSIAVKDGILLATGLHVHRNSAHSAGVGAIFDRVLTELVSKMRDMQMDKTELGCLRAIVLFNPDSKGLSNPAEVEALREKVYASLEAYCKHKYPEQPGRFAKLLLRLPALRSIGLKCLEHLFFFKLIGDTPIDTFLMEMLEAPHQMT
Experimental: Thus, with reference to FIG. 5A, CV-1 cells were transiently transfected with hsp27-EcRE×5 MTV-luciferase alone (−) or with expression vectors for rat FAR and/or human RXRα. Reporter activity was assayed after treating cells with or without 50 µM JH III.

FAR-RXRalpha heterodimer [2] = biological target: T1, FAR-RXRalpha heterodimer; assay: EMSA; half-site substitutions abolish binding; conditions: tags: rabbit reticulocyte lysate TNT, Promega; label: 32P (Klenow)
Experimental: (§1) It was next sought to determine the DNA binding properties of the FAR-RXRα complex. Because FAR and EcR share 100% sequence identity in the DNA recognition helix (P-box, Cys^141-Lys^145), it was examined whether the FAR-RXRα complex could recognize the hsp27 […] (EcRE; Yao et al., *Cell* 71:63–72 (1992)). Electrophoretic mobility shift analysis was performed using [^32P]-labeled DNA and in vitro translated FAR and RXRα. Proteins used in electrophoretic mobility shift assays were prepared by translation in a rabbit reticulocyte lysate system (TNT, Promega). Proteins (1 µl) were incubated for 20 minutes at room temperature with 100,000 cpm of Klenow-labeled probes in 10 mM Tris pH 8, 100 mM KCl, 6% glycerol, 0.05% NP-40, 1 mM DTT, 100 ng/µl poly dI dC and then electrophoresed through a 5% polyacrylamide gel in 0.5×TBE. The gel was autoradiographed for 1.5 hours with an intensifying screen.

RXRalpha = RXRalpha (UniProt P19793 P19793:1-462); assay: EMSA; RXRalpha alone, no high affinity binding; conditions: tags: rabbit reticulocyte lysate TNT, Promega; GenBank X52773 cited for human RXRalpha; label: 32P (Klenow)
Chain of RXRalpha (P19793 whole entry, one chain of several): as the sequence (P19793 whole entry, chain 2 of 2) above
Experimental: as §1

FAR-RXRalpha heterodimer [3] = biological target: T1, FAR-RXRalpha heterodimer; assay: EMSA; mutated element not recognized; conditions: tags: rabbit reticulocyte lysate TNT, Promega; label: 32P (Klenow)
Experimental: as §1

FAR-RXRalpha heterodimer [4] = biological target: T1, FAR-RXRalpha heterodimer; assay: EMSA; cooperative binding; conditions: tags: rabbit reticulocyte lysate TNT, Promega; label: 32P (Klenow)
Experimental: as §1

B1: hsp27-EcRE x5 MTV-luciferase reporter (dsDNA)
DNA 1: GGTTCAATGCACT
DNA 2: AGTGCATTGAACC
- activity (FAR-RXRalpha heterodimer [1]): 17 fold activation

B2: IR1m (dsDNA)
DNA 1: AGAACAATGTTCT
DNA 2: AGAACATTGTTCT
- binding result (FAR-RXRalpha heterodimer [2]): no binding

B3: hsp27-EcRE (dsDNA)
DNA 1: GGTTCAATGCACT
DNA 2: AGTGCATTGAACC
- binding result (RXRalpha): no binding

B4: EcREm (mutated hsp27-EcRE) (dsDNA)
DNA 1: CGTTCAATGCACA
DNA 2: TGTGCATTGAACG
- binding result (FAR-RXRalpha heterodimer [3]): no binding

B5: idealized IR1 (dsDNA)
DNA 1: AGGTCAATGACCT
DNA 2: AGGTCATTGACCT
- binding result (FAR-RXRalpha heterodimer [4]): binds
